{
  "source": "patent US8404644B2",
  "about": "“Agents with angiogenic and wound healing activity” (Meat & Livestock Australia Limited, priority 2007, dated 2013)",
  "molecules": {"B1": {"name": "Tryptophan dioxygenase TDO: tryptophan hydrolyzing enzyme (protein, UniProt P48775 1-406, looked up)", "Tryptophan 2,3-dioxygenase": "MSGCPFLGNNFGYTFKKLPVEGSEEDKSQTGVNRASKGGLIYGNYLHLEKVLNAQELQSETKGNKIHDEHLFIITHQAYELWFKQILWELDSVREIFQNGHVRDERNMLKVVSRMHRVSVILKLLVQQFSILETMTALDFNDFREYLSPASGFQSLQFRLLENKIGVLQNMRVPYNRRHYRDNFKGEENELLLKSEQEKTLLELVEAWLERTPGLEPHGFNFWGKLEKNITRGLEEEFIRIQAKEESEEKEEQVAEFQKQKEVLLSLFDEKRHEHLLSKGERRLSYRALQGALMIYFYREEPRFQVPFQLLTSLMDIDSLMTKWRYNHVCMVHRMLGSKAGTGGSSGYHYLRSTVSDRYKVFVDLFNLSTYLIPRHWIPKMNPTIHKFLYTAEYCDSSYFSSDESD"}, "B2": {"name": "Wound Heal 1: bovine βB2 crystallin, fractionated at pH 5.3 on Sephacryl 300 HR; Group B of Example 3, 0.01 mg/wound (protein)", "chain": "ASDHQTQAGKPQPLNPKIIIFEQENFQGHSHELNGPCPNLKETGVEKAGSVLVQAGPWVGYEQANCKGEQFVFEKGEYPRWDSWTSSRRTDSLSSLRPIKVDSQEHKITLYENPNFTGKKMEVIDDDVPSFHAHGYQEKVSSVRVQSGTWVGYQYPGYRGLQYLLEKGDYKDSGDFGAPQPQVQSVRRIRDMQWHQRGAFHPSS"}, "B3": {"name": "Bovine βB2 crystallin (non-elastase treated): intact bovine βB2 crystallin prepared by RP HPLC on C4 column (protein, UniProt P02522 2-205, looked up)", "Beta-crystallin B2": "B2 chain"}, "B4": {"name": "Bovine αB crystallin: bovine αB crystallin prepared by ion exchange chromatography, essentially homogenous (protein)", "chain": "MDIAIHHPWIRRPFFPFHSPSRLFDQFFGEHLLESDLFPASTSLSPFYLRPPSFLRAPSWIDTGLSEMRLEKDRFSVNLDVKHFSPEELKVKVLGDVIEVHGKHEERQDEHGFISREFHRKYRIPADVDPLAITSSLSSDGVLTVNGPRKQASGPERTIPITREEKPAVTAAPKK"}, "B5": {"name": "Ovine βB2 crystallin: intact ovine βB2 crystallin prepared by RP HPLC on C4 column (protein)", "chain": "ASDHQTQAGKPQPLNPKIIIFEQENFQGHSHELNGPCPNLKETGVEKAGSVLVQAGPWVGYEQANCKGEQFVFEKGEYPRWDSWTSSRRTDSLSSLRPIKVDSQEHKITLYENPNFTGKKMEVIDDDVPSFHAHGYQEKVSSVRVQSGTWVGYQYPGYRGLQYLLEKGDYKDSGDFGAPQPQVQSVRRIRDMQWHQRGAFHPS"}},
  "key": {"rat aortic ring": {"tested_on": "rat aortic ring", "assay": "Rat aortic ring angiogenesis assay (Example 4.3)", "assay_type": "cell-based, Lewis rat", "conditions": "for % of Control: microvessel growth", "procedure": "Four separate studies were carried out to determine the angiogenic effect of crystallin preparations. Each sample was assayed in triplicate. A positive control (VEGF) and a vehicle control containing PBS was also run in triplicate. […] Preliminary statistical significance was assessed with an independent Student t-test at α<0.05. Graphical representation of averages +/− standard errors were determined.\nThe first study investigated the angiogenic potential of bovine fractions prepared by gel filtration analysis as described in Example 3.2. As described in that Example, the alpha fraction contained αA and αB crystallin, the β H fraction contained all β crystallins, the β L1 fractions contained a sub-fraction of beta crystallins and a high content of βB2 crystallin and beta B3 crystallin and the beta L2 fraction contained only βB2 crystallin and βA3 crystallin.\nThe second study investigated the angiogenic potential of purified crystallin proteins. Briefly, βB3 crystallin was prepared by heating (97-99° C. for 3 minutes, supernatant collected by centrifugation) and was essentially homogenous. Alpha A crystallin and αB crystallin samples were prepared by ion exchange chromatography as described above and were also essentially homogenous. The Wound Heal 1-3 preparations were also tested in this study.\nThe third study investigated the angiogenic potential of ovine crystallin proteins compared to their bovine equivalents. Both bovine and ovine crystallin proteins were purified essentially to homogeneity by RP. HPLC using a C4 column, as described below in Example 5. Homogeneity was confirmed by SDS-PAGE. The effect of elastase I treatment of βB2 crystallin was also investigated by comparing the angiogenic potential of intact βB2 crystallin (i.e. undigested) with elastase I digested βB2 crystallin. Elastase I treatment releases the N-terminal and C-terminal extensions of the crystallin protein leaving a globular protein that is monomeric.\nIn the final study, ovine βB2 crystallin was tested alone or in combination with indoleamine 2,3-dioxygenase (IDO) and ovine alpha B crystallin was tested alone or in combination with tryptophan dioxygenase (TDO)\nBriefly, in each study, a single Lewis rat was euthanised and its aorta transferred to a 15 mL Falcon tube containing 10 mL of MCBD-131 medium and stored on ice. After transferring the aorta to a 92×17 mm petri dish containing 10 mL of ice cold MCDB-131, the outer fatty tissue was removed under an Olympus SZ-60 Dissecting microscope. This was undertaken with fibre optic lamp illumination. The aorta was then cut into sequential rings approximately 2 mm in size. Connective tissue was removed with micro scissors and forceps from the outside of the individual rings. Clean rings were stored in a separate petri dish in sterile MCDB-131 medium. Rings were pre-incubated overnight at 37° C. in an atmosphere of 97% air/3% CO2.\nTo prepare gel sandwiches, 75 mg of fibrinogen was added to 25 mL MCDB-131 medium and shaken gently on a rocker roller for 5 minutes. 3 ml of MCDB-131/fibrinogen solution was added to a 15 mL Falcon tube, followed by 10 μL of thrombin and quickly mixed. A 0.4 mL volume of this fibrinogen-thrombin solution was added to each well on a 24 well plate, 6 wells at a time. Aortic rings were then placed on the setting gel, pushed gently into the gel and left for 45 minutes. These steps were then repeated so each ring was covered with 0.4 mL of gel. Gels were left to set at room temperature. […] The plate was then placed in incubator (37° C., 97% air/3% CO2).\nCulture plate were examined daily for signs of infection (fungal growth or yellowing of media) in the wells using an inverted microscope. The growth of microvessels from their perimeters was also observed. Digital photographs of each well were taken seven days after plating using a Pixera PVC-100C digital camera mounted on an OLYMPUS CK-12 microscope and stored on a Macintosh Computer. […]"}, "[1]": {"tested_on": "full thickness 12 mm wound", "assay": "Wound healing assay (Example 3.6)", "assay_type": "in vivo, male Lewis rats", "conditions": "for Wound areas: mg/wound: Wound heal 1 0.01, Wound heal 2 0.1, Wound heal 3 1.0, Aloe vera 20", "procedure": "Thirty male Lewis rats were divided into 5 groups of 6 rats as outlined below in Table 7. Rats were age and weight matched. Rats were permitted rodent diet and water ad libitum throughout the study.\nThe animals were weighed two days before the start of the trial and weights grouped from lightest to heaviest. Animals were then randomly assigned to groups based on body weights, using 5×5 Latin squares so that group means were as similar as possible.\nApproximately 30 minutes before wounding, each animal was given a subcutaneous injection of Temgesic at the base of the neck (0.075 mg/kg body weight). Each animal was anaesthetised using 3% halothane in oxygen. Once the pedal reflexes had been abolished, the animals were shaved from the base of the skull to the hind limb area using electric clippers. The skin on each rat was disinfected using 0.5% chlorhexidine in 70% ethanol. For each animal, the distance from the base of the skull to the top of the hip joint was measured and the wound position marked with a black felt tip pen, 6 cm below the base of the skull along the spinal axis.\nUsing asceptic techniques a full thickness incision was made at this position using a sterile 12 mm biopsy punch. Any bleeding was removed using cotton swabs. Care was taken that the punch was dry and that no debris (eg., skin, hair) entered the wounds. […] After photography of each wound using a Canon Digital EOS 20D camera with a F2.8 Macro lens, an aliquot of the sample was applied to the wounds on the rats in Groups A, B, D and E using a Gilson Microman CP 100 positive displacement pipette. The biopsy punch was wiped inside with a swab soaked in sterile saline to remove any tissue fluids and/or debris. The punch was then immersed in 70% ethanol before use on the next animal.\nFor applications and photographs after day 1 the animals were restrained without being anaesthetised.\n(§1) Body weights were measured on days 1, 3, 5, 7, 9, 11, 13, 15, 17, 19, 21 and 23 and deviations from original body weights (on day 1) calculated for each animal. On the same days, photographs were taken using a Canon Digital Eos 20D with a F2.8 Macro lens. Photographs were downloaded and wound areas measured using NIH Image J 1.633u software (National Institutes of Health (NIH), Rockville Pike, Bethesda, Md., United States). A laser speckle image was also taken at the same time as each space photograph was taken. Animals were weighed every second day when the photographic record of wound closure rate was also made.\nThe redness and swelling of each wound were individually scored from visual observation. These were scored on a scale of 0-3 as follows:\nDescriptive statistics were evaluated. […] Major analyses were performed on all data points collected. Preliminary analyses were undertaken on control wounds only using t-tests. Univariate ANOVAs were used to assess differences between treatment and controls and samples nested within treatments. A separate ANOVA assessed whether there was a dose response using the treatment samples only. Assumptions for normality were tested using q-q plots on studentized residuals and heterogeneity of variances were tested using Levene's tests. SPSS 11 for Mac OSX was used for assumption testing and statistical analysis."}, "[2]": {"assay": "Body weight during wound healing assay (Example 3.6)", "assay_type": "in vivo, male Lewis rats", "conditions": "PBS control returned by day 11", "procedure": "as §1"}, "elastase I": {"target": "T1, elastase I (Sus scrofa, UniProt P00772)", "T1 construct": "purchased Worthington Biochemical Corporation 2280", "T1 sequence (P00772 27-266)": "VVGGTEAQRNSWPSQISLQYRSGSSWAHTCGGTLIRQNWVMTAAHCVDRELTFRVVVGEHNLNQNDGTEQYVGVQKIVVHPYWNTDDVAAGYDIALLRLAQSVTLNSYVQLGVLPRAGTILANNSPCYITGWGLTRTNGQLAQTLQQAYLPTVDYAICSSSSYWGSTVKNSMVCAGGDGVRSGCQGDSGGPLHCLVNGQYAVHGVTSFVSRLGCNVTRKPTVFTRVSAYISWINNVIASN", "assay": "Chaperone activity: protection of elastase I from heat denaturation", "assay_type": "biochemical", "conditions": "boiling water bath for 30 seconds", "procedure": "Bovine crystallin fractions were tested for ability to protect the proteases elastase I, trypsin and chymotrypsin from heat denaturation. Briefly, the proteases were heated in a boiling water bath for 30 seconds in the presence or absence of the crystallin fractions."}, "[3]": {"conditions": "summary of second and third study"}},
  "data": [
    {"molecule": "B1", "values": [
      {"measurement": "angiogenic activity (in words)", "setting": "rat aortic ring; forth study, 100 μg/mL", "value": "stimulatory"},
      {"measurement": "% of Control", "setting": "rat aortic ring; forth study, 100 μg/mL", "value": 106.2, "unit": "%"}
    ]},
    {"molecule": "B2", "values": [
      {"measurement": "Wound areas", "setting": "[1]; Day 1 (=100)", "value": 100},
      {"measurement": "Wound areas", "setting": "[1]; Day 3", "value": 86},
      {"measurement": "Wound areas", "setting": "[1]; Day 5", "value": 75},
      {"measurement": "Wound areas", "setting": "[1]; Day 7", "value": 69},
      {"measurement": "Wound areas", "setting": "[1]; Day 9", "value": 54},
      {"measurement": "Wound areas", "setting": "[1]; Day 11", "value": 32},
      {"measurement": "Wound areas", "setting": "[1]; Day 13", "value": 18},
      {"measurement": "Wound areas", "setting": "[1]; Day 15", "value": 13},
      {"measurement": "Wound areas", "setting": "[1]; Day 17", "value": 8},
      {"measurement": "Wound areas", "setting": "[1]; Day 19", "value": 4},
      {"measurement": "Wound areas", "setting": "[1]; Day 21", "value": 1.7},
      {"measurement": "Wound areas", "setting": "[1]; Day 23", "value": 1.4},
      {"measurement": "mean wound area", "setting": "[1]; day 5", "value": "123 ± 14.7", "unit": "mm²"},
      {"measurement": "wound area at day 5, statistical significance", "setting": "[1]; day 5, p=0.045 (Wound Heal 1), p=0.008 (Wound Heal 2)", "value": "significantly smaller"},
      {"measurement": "healing rate compared to Control group (PBS), in words", "setting": "[1]; rat, in vivo", "value": "slightly faster healing rate than the reference group over the first 7 days"},
      {"measurement": "% of Control", "setting": "rat aortic ring; second study, 200 μg/mL", "value": 94.52, "unit": "%"},
      {"measurement": "day by which mean body weight had returned to the starting (pre-wounding) weight", "setting": "[2]", "value": "≤ 14", "unit": "days"},
      {"measurement": "chaperone activity: protection of elastase I from heat denaturation (in words)", "setting": "elastase I", "value": "not"}
    ]},
    {"molecule": "B3", "values": [
      {"measurement": "angiogenic activity (in words)", "setting": "rat aortic ring; [3]", "value": "not angiogenic"},
      {"measurement": "% of Control", "setting": "rat aortic ring; third study, 100 μg/mL", "value": 93.4, "unit": "%"}
    ]},
    {"molecule": "B4", "values": [
      {"measurement": "% of Control", "setting": "rat aortic ring; second study, 200 μg/mL", "value": 85.21, "unit": "%"},
      {"measurement": "chaperone activity: protection of elastase I from heat denaturation (in words)", "setting": "elastase I", "value": "able to protect elastase I from heat inactivation"}
    ]},
    {"molecule": "B5", "values": [
      {"measurement": "angiogenic activity (in words)", "setting": "rat aortic ring; [3]", "value": "not angiogenic"},
      {"measurement": "% of Control", "setting": "rat aortic ring; third study, 100 μg/mL", "value": 103.5, "unit": "%"}
    ]}
  ]
}
